Results reported in paper PMC6677920 (2019).

Target: recombinant bovine respiratory syncytial virus fusion (F) protein, purified (bovine respiratory syncytial virus, UniProt P22167 26-513)
Assay: SPR

B1: hybrid Fab B4* (B4 HC/B13 LC) (Fab, V domains shown)
VH: QVQLQESGPSLVKPSQTLSLTCTVSGFSLSSYSVSWVRQAPGKTLEWLGDASNGGIIYYNPALKSRLGITRDNSKSQVSLSLNTITPEDTATYYCAKCSVGDSGSYACTGRKGEYVDAWGQGLLVTVSS
VL: QAVLTQPPSVSGSLGQRVSITCSGSSDNIGIFAVGWYQQVPGSGLRTIIYGNTKRPSGVPDRFSGSKSGNTATLTINSLQAEDEADYFCVCGESKSATPVFGGGTTLTVL
For B1, the Kd was roughly 12 µM.
